{"source": "paper PMC7099005", "about": "“Function-based high-throughput screening for antibody antagonists and agonists against G protein-coupled receptors” (Communications Biology, 2020)"}
{"biological_target": "T1, human apelin receptor (APJ), wild type (Homo sapiens, UniProt P35414)", "T1 sequence (P35414 whole entry)": "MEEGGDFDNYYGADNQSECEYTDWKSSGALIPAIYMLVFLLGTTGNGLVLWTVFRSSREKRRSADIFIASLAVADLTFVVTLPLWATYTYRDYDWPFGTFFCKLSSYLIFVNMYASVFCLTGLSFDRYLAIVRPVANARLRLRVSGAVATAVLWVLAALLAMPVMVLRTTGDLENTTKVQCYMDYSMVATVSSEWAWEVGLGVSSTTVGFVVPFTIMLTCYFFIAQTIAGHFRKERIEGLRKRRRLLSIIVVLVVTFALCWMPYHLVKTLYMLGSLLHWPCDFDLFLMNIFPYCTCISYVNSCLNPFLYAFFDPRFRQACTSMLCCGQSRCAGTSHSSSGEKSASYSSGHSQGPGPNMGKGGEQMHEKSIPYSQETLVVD", "experiment": "cell-based or functional assay", "conditions": "not given", "units": {"IC50 of soluble sdAb in APJ PathHunter β-arrestin assay, antagonist mode (apelin 13 at EC80; blocks apelin 13 with APJ)": "nM"}}
{"binder": "sdAb antagonist JN406 (VHH) VHH: EVQLVESGGGSVQSGGSLRLSCAASGSTYRSHCMGWFRQAPGKEREGVAIMTSRGTTYADSVKGRFTISQDNTKNIFYLQMNSLKPEDTAMYYCAAVPRAGIGDGAFCKWNMKDSGSWGQGTLVTVSS", "IC50 of soluble sdAb in APJ PathHunter β-arrestin assay, antagonist mode (apelin 13 at EC80; blocks apelin 13 with APJ)": "< 200"}
{"binder": "sdAb antagonist JN412 (VHH) VHH: HVQLVESGGGSVQAGGSLRLSCAASGSTYRSHCMGWFRQAPGKEREGVAIMTSRGTTYADSVKGRFTISQDNTKNIFYLQMNSLKPEDTAMYYCAAVPRAGIGDGAFCKWNMKDSGSWGQGTLVTVSS", "IC50 of soluble sdAb in APJ PathHunter β-arrestin assay, antagonist mode (apelin 13 at EC80; blocks apelin 13 with APJ)": "< 200"}
{"binder": "sdAb antagonist JN411 (VHH) VHH: HVQLVESGGGSVQAGGSLRLTCAASGLAYSRTCMGWFRQAPGKEREVVATIRRDGTTTYADSVKGRFTISRDNTRNTLALQMNSLKPEDSAMYYCAAVWVALGVPTSVCPSEYKFWGQGTLVTVSS", "IC50 of soluble sdAb in APJ PathHunter β-arrestin assay, antagonist mode (apelin 13 at EC80; blocks apelin 13 with APJ)": "< 200"}
{"binder": "sdAb antagonist JN401 (VHH) VHH: HVQLVESGGGSVQSGGSLRLSCVASGITFSLYCMYWFRQAPGKEREAVASIRSTGATVYGDSVKGRFTISRDSAKNTLYLQMNSLNPEDTAMYYCAAAKKMLYGPGCGSYKDWGQGIQVTVSS", "IC50 of soluble sdAb in APJ PathHunter β-arrestin assay, antagonist mode (apelin 13 at EC80; blocks apelin 13 with APJ)": "> 200"}
{"binder": "sdAb antagonist JN400 (VHH) VHH: QVQLVESGGGSVQSGGSLRLSCAASGSTYRSHCMGWFRQAPGKEREEVAIMTRSRGTSYADSVKGRFTISQDNTKNILYLQMNSLKPEDTAMYYCAAVPRAGIGDGGYCKWNMKDSGSWGQGTLVTVSS", "IC50 of soluble sdAb in APJ PathHunter β-arrestin assay, antagonist mode (apelin 13 at EC80; blocks apelin 13 with APJ)": "< 200"}
{"binder": "sdAb antagonist JN414 (VHH) VHH: QVQLVESGGGSVQSGGSLTLSCAASGSTYSSHCMGWFRQAPGKEREGVALMTRSRGTSYADSVKGRFTISQDNTKNILYLQMNSLKPEDTAMYYCAAVPRAGIESGAYCKWNMKDSGSWGQGTLVTVSS", "IC50 of soluble sdAb in APJ PathHunter β-arrestin assay, antagonist mode (apelin 13 at EC80; blocks apelin 13 with APJ)": "< 200"}
{"binder": "sdAb antagonist JN402 (VHH) VHH: QVQLVESGGGSVQAGGSLRLSCAASGSTYSSHCMGWFRQAPGKEREEVALMTRARGTSYADSVKGRFTISQDNTKNILYLQMNSLKPEDTAMYYCAAVPRAGIETGAYCKWNMKDSGSWGQGTLVTVSS", "IC50 of soluble sdAb in APJ PathHunter β-arrestin assay, antagonist mode (apelin 13 at EC80; blocks apelin 13 with APJ)": "< 200"}
{"binder": "sdAb antagonist JN413 (VHH) VHH: DVQLVESGGGSVQSGGSLRLSCAASGSTYRSHCMGWFRQAPGKEREEVAIMTRSRGTSYADSVKGRFTISQDNTKNILYLQMNSLKPEDTAMYYCAAVPRAGIGDGAYCKWNMKDSGSWGQGTLVTVSS", "IC50 of soluble sdAb in APJ PathHunter β-arrestin assay, antagonist mode (apelin 13 at EC80; blocks apelin 13 with APJ)": "< 200"}
{"binder": "sdAb antagonist JN409 (VHH) VHH: QVQLVESGGGSVQSGGSLRLSCAASGDTSSRSCMGWFRQAPGKEREWVGRILNAGITSYADSVKGRFTISQDNVKNTLYLQMNSLNSEDTAIYYCAAGRTSYAGSWYCRYNYWGQGTQVTVSS", "IC50 of soluble sdAb in APJ PathHunter β-arrestin assay, antagonist mode (apelin 13 at EC80; blocks apelin 13 with APJ)": "> 200"}
{"biological_target": "T1, human apelin receptor (APJ), wild type", "experiment": "flow cytometry on cells; 2 x 10^5 HEK293FT cells stably expressing HA-tagged huAPJ or its mutants stained with 250 nM soluble sdAb at 4 °C for 1 h; mouse anti-his antibody and Alexa Fluor 488 goat anti-mouse; sdAb GeoMean relative to anti-HA staining, normalised to WT APJ", "conditions": "one partner purified"}
{"binder": "sdAb agonist JN300 (VHH, camelid sdAb from a camel immunised with human APJ nanodiscs; source: FreeStyle 293F, transient (pTT5), purified (Ni-NTA)) VHH: HVQLVESGGGSVQAGGSLRLSCAASGYVGSMGWFRQAPGKDREGVAAFDFDGRAKHADSVKGRFTISRDNAKNTLYLQMNNLKPEDTAMYYCARSARQLLMLSHNPSDFGYWGQGTQVTVSS", "binding result": "binds"}
{"binder": "sdAb antagonist JN404 (VHH, camelid sdAb from a camel immunised with human APJ nanodiscs; source: FreeStyle 293F, transient (pTT5), purified (Ni-NTA)) VHH: QVQLVESGGGSVQAGGSLTLSCVGSGFSWSLNCMSWFRQAPGSEREGVAIFYSETGGAYYADSVEGRFSISQVNAGNTVLLRMNSLRPEDTAMYYCAAGYGCGSTESWWTYDYIFWGQGTLVTVSS", "binding result": "binds"}
